Sequences and labels used below:
T1: His-SPA (Storage Protein Activator, bZIP) (UniProt A0A9R1IS55 1-409)
T1 sequence: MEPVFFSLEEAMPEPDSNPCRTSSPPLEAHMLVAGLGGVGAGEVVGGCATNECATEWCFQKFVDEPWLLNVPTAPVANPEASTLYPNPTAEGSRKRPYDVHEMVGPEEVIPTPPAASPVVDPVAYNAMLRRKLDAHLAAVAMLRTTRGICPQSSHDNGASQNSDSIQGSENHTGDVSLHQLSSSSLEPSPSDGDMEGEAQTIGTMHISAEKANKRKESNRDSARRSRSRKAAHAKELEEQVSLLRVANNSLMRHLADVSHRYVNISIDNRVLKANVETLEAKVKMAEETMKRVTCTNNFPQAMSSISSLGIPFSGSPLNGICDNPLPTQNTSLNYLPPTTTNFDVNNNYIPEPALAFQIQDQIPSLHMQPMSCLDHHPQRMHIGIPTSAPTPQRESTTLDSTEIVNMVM

B1: GLM2 (-626) (dsDNA)
DNA 1: ATAGATATTGTGAGTCAGCATGGAT
DNA 2: ATCCATGCTGACTCACAATATCTAT
B2: glm1 (dsDNA)
DNA 1: ATAGATGTTTTTATTAATTGGATAG
DNA 2: CTATCCAATTAATAAAAACATCTAT
B3: mutated G-box (dsDNA)
DNA 1: GCCCATTCTCTGGCTTTAGCAGACC
DNA 2: GGTCTGCTAAAGCCAGAGAATGGGC

Three molecules from article PMC4228979, “Conserved cis-regulatory modules in promoters of genes encoding wheat high-molecular-weight glutenin subunits” can be followed below.

For this data set, the target named is T1, His-SPA (Storage Protein Activator, …). The experiment in a line: EMSA; 10 mM Tris pH 7.5, 100 mM KCl, 2 mM DTT, 2 mM EDTA, 10% glycerol, 0.05% nonyl phenoxypolyethoxylethanol, 0.5 mM PMSF, 100 ng/uL poly(dI.dC), 250 ng/uL fish sperm DNA; 20 fmol probe, 560 ng-4 ug protein in 20 uL; 30 min, room temperature; gel at 4 C. Particulars: protein: recombinant; tags: His tag (pDEST17); chain copies: 2; label: 3' biotin on each strand; blunt.
As to B1, the binding result is reported as “binds”.
For B2 the value was “no binding”; for B3, “no binding”.
